This note sets out measurements from US20250109212A1.

The target of assay [1] is full length human CD47 (NCBI #NP_942088.1) on 293F-CD47 cells (human) (UniProt Q08722). In words: FACS on 293F-CD47 cells, detection with goat anti-human IgG (Fc)-PE, MFI.
For assay [2] the target is unchanged. In words: cell-based blocking FACS on 293F-CD47 cells, blocked ligand biotin-labeled human CD172a-Fc, MFI.
For assay [3] the target is unchanged. Described as above. The source holds these as a separate data set.

Like-named read-outs stand apart in the source and are kept apart here.

Take SIRPα-isoform2-Fc (Fc fusion): the EC50 (as a rule, the midpoint of the concentration-response curve) in assay [1] worked out at 1.72 nM. Besides, the values for the IC50 in assay [2] and in assay [3] were 1.9 nM and 3.25 nM, respectively.
